According to patent publication US20090191571A1:
Read-outs that look alike come from different tables or passages of the source.

Assays:
[1] = target: T1, PrP^Sc (pathogenic mouse prion protein, RML, in infected Balb-c mouse brain homogenate) (mouse), P04925
[2] = target: T1, PrP^Sc (pathogenic mouse prion protein, …); remark: listed apart in the source

Binder	ELISA A405nm [1] [A405nm]	ELISA A405nm [2] [A405nm]
GGGKARPKPGG (modifications not checked) [Peptide reagent SEQ ID NO:105]	0.256	
GGGKKKKKKKK (modifications not checked) [Peptide reagent SEQ ID NO:85]		0.53
GGGKKRPAPGG (modifications not checked) [Peptide reagent SEQ ID NO:107]	0.578	
GGGNKPSKPK (modifications not checked) [Peptide reagent SEQ ID NO:79]		0.24
GGGAGAAAAGAVVGGLGG (modifications not checked) [Peptide reagent SEQ ID NO:56]		0.313
GGGKKRPKPGGGKKRPKPGG (modifications not checked) [Peptide reagent SEQ ID NO:72]		0.522
GGGAKRPKPGG (modifications not checked) [Peptide reagent SEQ ID NO:104]	0.273	
GGGGPKRKGPK (modifications not checked) [Peptide reagent SEQ ID NO:73]		1.06
GGGKKRAKAGG (modifications not checked) [Peptide reagent SEQ ID NO:98]		1.46
KKKAGAAAAGAVVGGLGG (modifications not checked) [Peptide reagent SEQ ID NO:65]		0.635
PHGGGWGQ (modifications not checked) [Peptide reagent SEQ ID NO:71]		0.263
GGGKPSKPK (modifications not checked) [Peptide reagent SEQ ID NO:80]		0.225
GGTHNQWNKPSKPKTN (modifications not checked) [Peptide reagent SEQ ID NO:54]		0.253
GGGKKAPKPGG (modifications not checked) [Peptide reagent SEQ ID NO:106]	0.268	
GGWGQGGGTHNQWNKPSKPKTN (modifications not checked) [Peptide reagent SEQ ID NO:53]		0.254
